A short description of this data set: soluble on expression in E. coli; label from the status in PepcDB or PDB records.
Turning to “LAAQMEQTDIELLWKQLEQTPGAQVTVSLEERTVTCEGNVYPFFVDDYTRWRLMEGLDDVGLTLRKEAEIAAFEARRPSFKPVTQ”, the “soluble on expression in E. coli” value was “not soluble”.
The value for “KQLLTLKIKCSNQPERQILEKQLPDSMTVQKVKGLLSRLLKVPVSELLLSYESSKMPGREIELENDLQPLQFYSVENGDCLLVR” was “soluble”; that for “MGSDKIHHHHHHMIDPAGRTTAWEYDAYGSLLVQTLPDGSAVRTEFDLDHRPVCMTLIGGRQWGYEWNTFGNLLAQSDPSGAISRYTYDEYGQLVEHTGPRGASTRFDYHPDGNLAAQIDALGHRTQYRYDARGYLGEAIDALGQQSQYEYDRNGHLTRAIEPGGREIHCAYDADGNLSRHRDPMGHVTQMEYSALGQVSRRLAPDGTTVEYRYDTEEQLIGVVNERSELYALERDALGRIVVETDYWGQARRYRYGAAGELLCSTDPLGQTVEYRYDWLGRIVQKRVPHPEQDEALQIDSFAYDRHGDLVLAENPSCRVEFDYDAAGRMIEERQGDDFTIASDYDEAVTCPLR” was “not soluble”.
With “EPFWADLQPRVAFVERGGSLWLNCSTNCPRPERGGLETSLRRNGTQRGLRWLARQLVDIREPETQPVCFFRCARRTLQARGLIRTFQRPDRVELMPLPPWQPVGENFTLSCRVPGAGPRASLTLTLLRGAQELIRRSFAGEPPRARGAVLTATVLARREDHGANFSCRAELDLRPHGLGLFENSSAPRELRTFSLS” the entry was “soluble”.
With “MSSTKRPASRADEITQELVRMIQLADARRIAKLPTEMELAAQLGISRPVIRESLSRLESLNMVTRRQGSGLYIVAPEKRSPEALVLLEQSAPLSPRSIAEAMSVRAILELETGRLAALNHRQVDLDRMAAEIERLAATGARGLEAAEADEAFHRALSDAAGNVTLSQVLDLFLRLSWRRRVEYFSQPKLGKQSIIEHQEILNAVASGDPDAVSTAIRTHLNSAERFWDSKYVKKKS” the entry was “not soluble”; with “MAGDPMPTLFDDPLHQLPRPPRRVAAGVVHLPNFLGLAEQKALVAQARDLAREVVGTPLAMVRPKLKSGQMSVHMLHLGKYWASNPYRYVDVVDGFPVPPLPDSFVDLAHRALLSAGSLSNSLQSWSEAYRAEAALVNYYSPDASMGMHQDANEESEAPVISLSIGDTGIFRLGGTLNRNKPWTDIPLMSGDLIVFGGANRQAFHGIPSIEANTAPAGCGLKEGRINITIRQLALAAALEHHHHHH”, “soluble”.
Take “MPWRNKEASSPSSANPPLEALQSPSFRGNMADKLKDPSTLGFLEAAVKISHTSPDIPAEVQMSVKEHIMRHTRLQRQTTEPASSTRHTSFKRHLPRQMHVSSVDYGNELPPAAEQPTSIGRIKPELYKQKSVDGEDAKSEATKSCGKINFSLRYDYETETLIVRILKAFDLPAKDFCGSSDPYVKIYLLPDRKCKLQTRVHRKTLNPTFDENFHFPVPYEELADRKLHLSVFDFDRFSRHDMIGEVILDNLFEASDLSRETSIWKDIQYATSESVDLGEIMFSLCYLPTAGRLTLTVIKCRNLKAMDITGYSDPYVKVSLLCDGRRLKKKKTTIKKNTLNPVYNEAIIFDIPPENMDQVSLLISVMDYDRVGHNEIIGVCRVGITAEGLGRDHWNEMLAYPRKPIAHWHSLVEVKKSFKEGNPRL”: the “soluble on expression in E. coli” value is “not soluble”.
Turning to “MSFRHFKRRLDTSSADESSSADEEHPDQNVSLTEKSASLSHSDLGGEILNGTGKNRTPNDGQESNESDGSPESDESPESEESSDNSDSSDSDDMRPLPRPLFMKKKANNLQKATKIDQPWNAQDDARVLQTKKENMIKNIDKANQVAKNYETMKLRLNTNYSTNEELIKQCLLLDDNDEVDSEKERQKWFERQNERKQKHRRIQLAKQRESEEYEAKRFEAMQKGKDGNTKYDVILDKEKEKLDHKKQRSAEKVEKSHNNNRYKITRTKNVEFGDLGKNSRDYEETEYSVI”, the “soluble on expression in E. coli” value is “soluble”.
With “GKRDNLEIDRTGLALTAFYARNLAVPERRRVEHPQVLRGKQLFHEAGCPACHVPKFVTHRLKDQPEQSFQLIWPYTDLLLHDMGEGLADGRPEGRATGREWRTAPLWGIGLTEQVSGHANFLHDGRARSILEAVLWHGGEAEAARARVMALPAPDRAALVAFVEDL” the entry was “not soluble”; with “MTLTKAELADILVDKVSNVTKNDAKEIVELFFEEIRSTLASGEEIKISGFGNFQLRDKPQRPGRNPKTGEEVPITARRVVTFHASQKLKSMVEHYYDKQR”, “not soluble”.

The values above are taken from the DeepSol protein solubility set.
